In experiment [1] the target is T1, human CEACAM5 on CEACAM5-expressing cancer cell lines (human, UniProt P06731 35-685).
T1 construct: whole, on cells; also called CEACAM5 on SK-CO-1, MKN-45, HPAF-II, SNU-C1, Ls174T, LoVo cells
T1 sequence (looked up): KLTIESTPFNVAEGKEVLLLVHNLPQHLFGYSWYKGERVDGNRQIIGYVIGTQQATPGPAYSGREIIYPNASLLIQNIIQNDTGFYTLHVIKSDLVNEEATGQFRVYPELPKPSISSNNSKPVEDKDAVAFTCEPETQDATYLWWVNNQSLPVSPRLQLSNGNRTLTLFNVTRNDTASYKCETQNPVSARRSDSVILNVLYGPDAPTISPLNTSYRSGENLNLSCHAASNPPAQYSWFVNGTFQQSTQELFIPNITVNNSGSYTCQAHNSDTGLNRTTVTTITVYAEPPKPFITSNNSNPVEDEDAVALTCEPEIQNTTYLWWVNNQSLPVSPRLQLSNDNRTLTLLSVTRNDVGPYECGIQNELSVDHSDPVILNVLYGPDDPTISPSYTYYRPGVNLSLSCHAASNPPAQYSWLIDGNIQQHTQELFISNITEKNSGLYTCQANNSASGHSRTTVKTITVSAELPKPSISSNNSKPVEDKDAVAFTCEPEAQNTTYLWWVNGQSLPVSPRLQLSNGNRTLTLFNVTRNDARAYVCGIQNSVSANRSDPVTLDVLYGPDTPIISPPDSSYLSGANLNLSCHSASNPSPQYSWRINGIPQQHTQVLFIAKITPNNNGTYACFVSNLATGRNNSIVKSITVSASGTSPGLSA
Description: flow cytometry on LoVo cells (carry CEACAM5 and CD47), PE anti-human IgG Fc. As for the experimental part: (§1) The binding of CD47×CEACAM5 bispecific antibodies was tested on CEACAM5-expressing human gastric adenocarcinoma cells (e.g. MKN-45), on CEACAM5-expressing human colorectal cancer cells (SK-CO-1, SNU-C1, Ls174T, and LoVo), and on CEACAM5-expressing pancreatic adenocarcinoma cells (HPAF-II).
(§2) Cells were harvested, counted, checked for viability and resuspended at 3×10⁶ cells/ml in FACS buffer (PBS 2% BSA, 0.1% NaN3). 100 μl of the cell suspension was distributed in V-bottom 96-well plates (3×10⁵ cells/well). The supernatant was removed by centrifugation 3 minutes at 4° C., 1300 rpm. Increasing concentrations of the antibody according to the invention were then added into the wells and incubated for 15 minutes at 4° C. Cells were washed twice with cold FACS buffer and re-incubated for further 15 minutes at 4° C. with the PE (R-phycoerythrin)-conjugated mouse anti-human IgG Fc secondary antibody (SouthernBiotech, pre-diluted 1:100 in FACS buffer). Cells were washed twice with cold FACS buffer and resuspended in 300 μl FACS buffer with 1:15000-diluted SytoxBlue (Life Technologies). Fluorescence, specifically mean fluorescence […] (MFI), was determined using a Cytoflex […] flow cytometer. Binding curves and […] and Emax values were obtained and calculated using GraphPad Prism7 software.

Experiment [2] addresses T2, human CD47 expressed at the surface of MKN-45 cells (human, UniProt Q08722 19-323).
T2 construct: whole, on cells; MKN-45 cells express both CD47 and CEACAM5; also called hCD47
Description: CD47/SIRPα blocking assay on MKN-45 cells (carry CD47 and CEACAM5), imaging of bound SIRPα-mouseFc. An excerpt: The cell-based assay monitoring the interaction of soluble SIRPa with human CD47 expressed at the surface of MKN-45 cells as described below was used for the detection of the blocking activity. Concentration-response experiments with bispecific antibodies according to the invention allowed determination of inhibition curves (see FIG. 4) and of IC50 values (see Table 12).
MKN-45 cancer cells, expressing both CD47 and CEACAM5, were stained with CFSE violet to allow the imaging system (CX5) to detect the cells. Briefly, 3'000 stained MKN-45 cells per well were seeded in a 384 optical well plate (Costar) and incubated for 50 minutes with increased concentrations of bispecific antibodies of the invention ([…] to 333 nM, in quadruplicates). Then, a fixed concentration of SIRPα-mouseFc premixed with anti-mouse IgG-Fc AF647 coupled antibody (Jackson Immunoresearch diluted 1:2000) was added at 50 ng/mL final. After an incubation of 3 hours and 30 minutes, images of the fluorescence signals emitted by the detected bound SIRPa on the plates were acquired with the imaging system (CX5, Thermo Fisher). Fluorescence signals (mean fluorescence intensity MFI) were plotted according to the dose range tested, and IC50 was calculated by the software (Prism, GraphPad).

Experiment [3] addresses T1, human CEACAM5 on CEACAM5-expressing …. The experiment can be described thus: flow cytometry on Ls174T cells (carry CEACAM5 and CD47), PE anti-human IgG Fc. As for the experimental part:
as §1, §2
Background: In flow cytometry, cells or beads pass a laser one at a time.

Experiment [4] deals with T3, his-tagged recombinant huCEACAM3 (R&D Systems, #9868-CM) (human, UniProt P40198 35-155).
T3 construct: Bought reagent; also called rec. hCEACAM3; recombinant soluble human CEACAM3; not shown: His tag
T3 sequence (looked up): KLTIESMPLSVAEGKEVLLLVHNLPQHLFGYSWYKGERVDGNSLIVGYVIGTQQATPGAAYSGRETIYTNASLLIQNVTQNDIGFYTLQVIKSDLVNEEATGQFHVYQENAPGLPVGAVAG
The experiment can be described thus: BLI (Octet), his-tagged CEACAM3 on HIS1K biosensor, antibody as analyte. How it is done:
The affinity of the anti-human CEACAM5 arms of the CD47×CEACAM5 bispecific antibodies of the invention for recombinant soluble human CEACAM3 was determined using the Bio-Layer Interferometry (BLI) technology and an OctetRED96 instrument. HIS1K biosensors (Sartorius), loaded with an anti-His tag antibody, were used to capture his-tagged recombinant huCEACAM3 (R&D Systems, #9868-CM). The measurement was performed at 30° C. After hydration, pre-conditioning and a baseline step in Kinetic buffer (PBS, 0.002% Tween 20, 0.01% BSA, Kathon; Sartorius), biosensors were loaded for 5 min with the recombinant huCEACAM3 at 5 μg/mL in Kinetic buffer. Then, biosensors were dipped into a serial dilution of k bodies, starting at 667 nM with a 2× dilution factor. The association and dissociation phases were monitored for 60 seconds and 120 seconds respectively. Biosensors were regenerated using 10 mM glycine pH 1.7. A standard acquisition rate was applied (5.0 Hz, averaging by 20). Curves were processed with a double reference subtraction, a Y alignment on the baseline and an interstep correction. The affinity was measured applying a 1:1 global fitting model on the full association step and the first 5 seconds of the dissociation step.
In general terms: In BLI a coated tip is dipped into the sample, and binding shifts an interference pattern.

One may read the EC50 as the concentration needed to bring the measured effect to its halfway point. Higher therefore signals a need for much substance. The IC50 is the concentration needed to halve the response being measured. As usually defined, the Kd is the free concentration of one partner at which half of the binding sites on the other are occupied at equilibrium, for simple one-to-one binding.

T2 sequence (Q08722 19-323): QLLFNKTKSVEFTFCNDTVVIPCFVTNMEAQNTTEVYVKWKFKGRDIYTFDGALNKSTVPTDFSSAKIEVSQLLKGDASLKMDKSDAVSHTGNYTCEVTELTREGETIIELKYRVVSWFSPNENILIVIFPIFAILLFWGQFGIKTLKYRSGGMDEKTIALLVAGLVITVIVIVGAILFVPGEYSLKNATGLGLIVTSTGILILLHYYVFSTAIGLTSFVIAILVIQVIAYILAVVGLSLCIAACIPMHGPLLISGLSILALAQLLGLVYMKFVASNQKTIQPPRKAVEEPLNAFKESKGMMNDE

B1: K2AC84 (bispecific antibody, human IgG1, kappa, lambda)
heavy: not shown
light 1: QSVLTQPPSVSAAPGQKVTISCSGSSSNIGIGLVSWYQQLPGTAPKLLIYNVNTRPSGIPDRFSGSKSGTSATLGITGLQTGDEADYYCGTWDFSYRVDFGGGTKLTVLGQPKAAPSVTLFPPSSEELQANKATLVCLISDFYPGAVTVAWKADSSPVKAGVETTTPSKQSNNKYAASSYLSLTPEQWKSHRSYSCQVTHEGSTVEKTVAPTECS
light 2: not shown
notes: Kappa-lambda body; also called CD47xCEACAM5 bispecific antibody K2AC84; AC84 (CEACAM5 arm)
For B1, in experiment [1], the midpoint of the response, the EC50, lay at 16 nM and the “Emax (MFI)” value worked out at 360000 MFI. For the same molecule, the IC50 in experiment [2] was found to be 0.04 nM. Also, in experiment [3], the EC50 amounted to 5.6 nM and the “Emax (MFI)” value was found to be 89000 MFI. Besides, the equilibrium dissociation constant (Kd) in experiment [4] stood at 360 nM.

B2: K2AC22 (bispecific antibody, human IgG1, kappa, lambda)
heavy: not shown
light 1: QSVLTQPPSVSAAPGQKVTISCSGSSSNIANGIVSWYQQLPGTAPKLLIYFDNLRPSGIPDRFSGSKSGTSATLGITGLQTGDEADYYCGTWDFSYGIVFGGGTKLTVLGQPKAAPSVTLFPPSSEELQANKATLVCLISDFYPGAVTVAWKADSSPVKAGVETTTPSKQSNNKYAASSYLSLTPEQWKSHRSYSCQVTHEGSTVEKTVAPTECS
light 2: not shown
notes: Kappa-lambda body, human IgG1, one arm for CEACAM5 and one for CD47; comparison antibody from WO2019234576; also called state of the art bispecific CEAxCD47 antibody K2AC22; CD47xCEACAM5 bispecific antibody K2AC22
Regarding B2, the concentration giving a half-maximal response (EC50) amounted to 44 nM in experiment [1] and 28 nM in experiment [3]. The “Emax (MFI)” value in experiment [1] worked out at 230000 MFI; in experiment [3] it was 73000 MFI. Also, in experiment [2], the half-inhibitory concentration (IC50) was determined as 1.2 nM. In addition, the Kd in experiment [4] turned out to be 10000 nM.

B3: K2AC100 (bispecific antibody, human IgG1, kappa, lambda)
heavy: not shown
light 1: QSVLTQPPSVSAAPGQKVTISCSGSSSNIGYGLVSWYQQLPGTAPKLLIYNGNIRPSGIPDRFSGSKSGTSATLGITGLQTGDEADYYCGTWDFSYRVDFGGGTKLTVLGQPKAAPSVTLFPPSSEELQANKATLVCLISDFYPGAVTVAWKADSSPVKAGVETTTPSKQSNNKYAASSYLSLTPEQWKSHRSYSCQVTHEGSTVEKTVAPTECS
light 2: not shown
notes: Kappa-lambda body; also called CD47xCEACAM5 bispecific antibody K2AC100; AC100 (CEACAM5 arm)
B3: in experiment [1], the response was half-maximal at 18.7 nM (EC50) and the “Emax (MFI)” value came to 280000 MFI. Moreover, in experiment [2], the concentration for half-maximal inhibition (IC50) came to 0.09 nM. Also, in experiment [3], the midpoint of the response, the EC50, lay at 4.5 nM and the “Emax (MFI)” value was 70000 MFI. Further, the equilibrium dissociation constant (Kd) in experiment [4] stood at 700 nM.
